In FireProtDB (doi:10.1110/ps.8.4.832):

Settings: Aspergillus oryzae (strain ATCC 42149 / RIB 40), Thermal, whole UniProt chain shown
[1] = pH 1.1, DSC, glycine-HCl 0.1 M/0.1 M, NaCl 0.1 M, reversible: yes(77%)
[2] = pH 1.5, DSC, glycine-HCl 0.1 M/0.1 M, NaCl 0.1 M, reversible: yes(99%)
[3] = pH 2, DSC, glycine-HCl 0.1 M/0.1 M, NaCl 0.1 M, reversible: yes(80%)
[4] = pH 3, DSC, glycine-HCl 0.1 M/0.1 M, NaCl 0.1 M, reversible: yes(80%)
[5] = pH 7, DSC, None, reversible: yes(26%)

B1: Guanyl-specific ribonuclease T1 wild type, P00651 (protein)
chain: MMYSKLLTLTTLLLPTALALPSLVERACDYTCGSNCYSSSDVSTAQAAGYQLHEDGETVGSNSYPHKYNNYEGFDFSVSSPYYEWPILSSGDVYSGGSPGADRVVFNENNQLAGVITHTGASGNNFVECT
Tm (pH 1.1, Absorbance, glycine-HCl 0.1 M/0.1 M, NaCl 0.1 M, reversible: yes(77%)): 25.9 °C
Tm [1]: 28.2 °C
unfolding enthalpy (calorimetric) [1]: 43.3 kcal/mol
unfolding enthalpy (van 't Hoff) [1]: 55.7 kcal/mol
Tm [2]: 32.3 °C
unfolding enthalpy (calorimetric) [2]: 47.6 kcal/mol
unfolding enthalpy (van 't Hoff) [2]: 60.5 kcal/mol
Tm (pH 2, Absorbance, glycine-HCl 0.1 M/0.1 M, NaCl 0.1 M, reversible: yes(80%)): 33 °C
Tm [3]: 37 °C
unfolding enthalpy (calorimetric) [3]: 68.9 kcal/mol
unfolding enthalpy (van 't Hoff) [3]: 66.3 kcal/mol
Tm (pH 3, Absorbance, glycine-HCl 0.1 M/0.1 M, NaCl 0.1 M, reversible: yes(80%)): 46.1 °C
Tm [4]: 50.2 °C
unfolding enthalpy (calorimetric) [4]: 95.7 kcal/mol
unfolding enthalpy (van 't Hoff) [4]: 93.1 kcal/mol
Tm (pH 3.5, Absorbance, glycine-HCl 0.1 M/0.1 M, NaCl 0.1 M, reversible: yes(73%)): 52.7 °C
Tm (pH 7, Absorbance, None, reversible: yes(26%)): 62.8 °C
Tm [5]: 64.4 °C
unfolding enthalpy (calorimetric) [5]: 123 kcal/mol
unfolding enthalpy (van 't Hoff) [5]: 116 kcal/mol
